Positions count from the first letter of the chain named.
B1: His-FLAG-FRB E2032I (other)
chain: MGHHHHHHHHGSDYKDDDDKGSASRILWHEMWHEGLIEASRLYFGERNVKGMFEVLEPLHAMMERGPQTLKETSFNQAYGRDLMEAQEWCRKYMKSGNVKDLTQAWDLYYHVFRRISKTS
notes: The entry already carries the mutation
B2: His-FLAG-FRB E2032L (other)
chain: B1 chain with I37L
notes: as for B1
B3: His-FLAG-FRB T2098L (other)
chain: B1 chain with I37E, T103L
notes: as for B1
B4: His-FLAG-FRB (wild-type FRB) (other)
chain: B1 chain with I37E
notes: also called wild type Flag-FRB

What follows are binders tested against T1, His-Avidin-FKBP (wild-type FKBP) (biotinylated) (assay: AlphaLISA direct binding assay, EC50 relative to wild type FLAG-FRB).
T1 construct: also called biotinylated wild-type FKBP; biotinylated FKBP
T1 sequence (chain, as listed by the source limits assumed): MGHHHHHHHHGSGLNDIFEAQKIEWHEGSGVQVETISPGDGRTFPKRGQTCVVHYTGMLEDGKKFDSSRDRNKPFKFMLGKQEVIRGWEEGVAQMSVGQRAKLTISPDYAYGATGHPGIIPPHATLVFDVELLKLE
Description: (§1) FRB mutations were also ranked in an alternative assay format. […] All dilutions were made in 1× AlphaLISA Immunoassay buffer (PerkinElmer). Anti-Flag acceptor beads (PerkinElmer) were added at 10 ug/ml final concentration and incubated for one hour at room temperature. Streptavidin donor beads (PerkinElmer), were then added at a final concentration of 40 ug/ml and the plate was protected from light and incubated for 30 minutes at room temperature. The plate was then read on the PerkinElmer EnVision Multiplate reader equipped with the Alpha Module using excitation of 680 nm and a 570 nm Emission filter.

B1 and B2 fall in the same range of “fold improvement over wild type FRB” value: 1.5 to 2 fold for the first, 1.5 to 2 fold for the second.

In the case of B3, the “fold improvement over wild type FRB” value is reported as 3 fold.

Each binder was assayed against T1, His-Avidin-FKBP (wild-type FKBP) (assay: AlphaLISA direct binding assay: 30 nM FLAG-FRB and 30 nM biotinylated FKBP, everolimus titrated 1:3 from 600 nM (EC50 is of everolimus)).
Description: as §1

Going from B4 to B1, the EC50 falls from 3.9 nM to 2.46 nM (1.6-fold).

B2 and B3 are within 1.5-fold of each other in EC50: 2.15 nM for the first, 1.44 nM for the second.

From patent publication US10287354 (Novartis, dated 2019)
